From patent publication US20090304719A1
Where no end group is shown, it is not given here. CPX display scaffold = circularly permuted E. coli OmpX display scaffold

Tests used:
anti-VCAM-1 scFv = test: FACS, peptide displayed on bacteria, 50 nM biotinylated anti-VCAM scFv then 1 nM anti-biotin PE; background without scFv printed as 142
VEGF [1] = molecular target: VEGF (UniProt P15692); test: FACS, clone displayed on E. coli (CPX), labeled VEGF; MMP-2 treated against untreated (FIG. 25)
VEGF [2] = molecular target: VEGF (UniProt P15692); test: FACS, clone displayed on E. coli (CPX), labeled VEGF; with MMP-2 against without (FIG. 23)

Chain of VEGF (P15692 other isoform, or with tags, fused parts or gaps limits assumed): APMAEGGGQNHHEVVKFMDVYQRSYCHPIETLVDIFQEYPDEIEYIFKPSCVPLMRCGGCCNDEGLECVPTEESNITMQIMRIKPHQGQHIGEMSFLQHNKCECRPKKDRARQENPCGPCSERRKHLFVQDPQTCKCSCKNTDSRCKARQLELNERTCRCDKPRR

Binder | average fluorescence value (anti-VCAM-1 scFv) | fold increase in fluorescence after enzyme cleavage (VEGF [1]) | fold increase in fluorescence in the presence of MMP-2 (VEGF [2])
GVVLTTMNFWDWITV [BBB-08] | 2620 |  | 
GQSGQCEYAFGPLGLAGGGSGNFGYGKWEWDYGKWLEKVGGC-{CPX display scaffold} (designed binder, not shown: large carriers; small tags and cut ends, not fully specified; cysteine pairing not given here) [ABP library clone 2-3B-5] |  | 10 fold | 11.8 fold
